The values that follow are results of earlier work, collected in patent US20190275108A1, “COMPOSITIONS IN THE FORM OF AN INJECTABLE AQUEOUS SOLUTION COMPRISING AMYLIN, AN AMYLIN RECEPTOR AGONIST OR AN AMYLIN ANALOGUE AND A CO-POLYAMINO ACID” (ADOCIA, priority 2017, published 2019).

Like-named read-outs stand apart in the source and are kept apart here.

Regarding “amylin: peptide of 37 amino acids, co-stored and co-secreted with insulin (KCNTATCATQRLANFLVHSSNNFGAILSSTNVGSNTY; Islet amyloid polypeptide; UniProt P10997 34-70, looked up)”, the “Time for which amylin is stable” value (acidic pH) is recorded as “about fifteen” and the “Time for which amylin is stable” value (neutral pH) is listed as “less than a minute”.
